Test results as given in US20230287051A1, “INHIBITORS OF COMPLEMENT FACTOR C3 AND THEIR MEDICAL USES” (ZP SPV 3 K/S, priority 2020, published 2023).
Numbered stars: 1 amine (or outer) side, 2 acyl side, 3 side chain; on linkers, the order of the positions; unused ones are H or OH. Bridge positions count the residues as written; N and C are the ends. Square brackets hold non-standard residues; d marks the D form. Side chains are listed from the residue outwards. Peptide text beside a SMILES is read from it. * marks the point of attachment. Trp(1-Me) = Cn1cc(C[C@H](N)C(=O)O)c2ccccc21; C18 diacid = O=C(O)CCCCCCCCCCCCCCCCC(=O)*; γGlu = O=C(O)[C@H](CCC(=O)[*:2])N[*:1]; AEEA = NCCOCCOCC(=O)O; CH2 = C([*:1])[*:2]; Sar = CNCC(=O)O

B1: Compound 28 (peptide)
peptide: Ac-GQSAFCI[Trp(1-Me)]QDW[Sar]EHRCTEGE[AEEA][AEEA]K([γGlu-Gly-γGlu-C18 diacid])-NH2
modifications: bridge 6-16 via methylene thioacetal (-S-CH2-S-)
notes: Synthetic compstatin analogue; also called Comp No 28
B2: Compound 27 (peptide)
peptide: Ac-EGESGFCI[Trp(1-Me)]QDW[Sar]EHRCTEGE[AEEA][AEEA]K([γGlu-Gly-γGlu-C18 diacid])-NH2
modifications: bridge 7-17 via methylene thioacetal (-S-CH2-S-)
notes: Synthetic compstatin analogue; also called Comp No 27
B3: Compound 20 (peptide)
peptide: Ac-EGSEFCI[Trp(1-Me)]QDW[Sar]EHRCTEGE[AEEA]ESK([γGlu-C18 diacid])-NH2
modifications: bridge 6-16 via methylene thioacetal (-S-CH2-S-)
notes: Synthetic compstatin analogue; also called Comp No 20
B4: Compound 12 (peptide)
peptide: Ac-EFCI[Trp(1-Me)]QDW[Sar]EHRCTEA[AEEA][AEEA]K([γGlu-Gly-γGlu-C18 diacid])-NH2
modifications: bridge 3-13 via methylene thioacetal (-S-CH2-S-)
notes: Synthetic compstatin analogue; also called Comp No 12
B5: Compound 15 (peptide)
peptide: Ac-[dY]ICI[Trp(1-Me)]QDW[Sar]EHRCTEGE[AEEA]ESK([γGlu-C18 diacid])-NH2
modifications: bridge 3-13 via methylene thioacetal (-S-CH2-S-)
notes: Synthetic compstatin analogue; also called Comp No 15
B6: Compound 7 (peptide)
peptide: Ac-SEFCI[Trp(1-Me)]QDW[Sar]EHRC[Sar]E[AEEA][AEEA]K([γGlu-Gly-γGlu-C18 diacid])-NH2
modifications: bridge 4-14 via methylene thioacetal (-S-CH2-S-)
notes: Synthetic compstatin analogue; also called Comp No 7
B7: Compound 10 (peptide)
peptide: Ac-SEFCI[Trp(1-Me)]QDW[Sar]EHRCTE[AEEA][AEEA]K([γGlu-Gly-γGlu-C18 diacid])-NH2
modifications: bridge 4-14 via methylene thioacetal (-S-CH2-S-)
notes: Synthetic compstatin analogue; also called Comp No 10
B8: Compound 23 (peptide)
peptide: Ac-ESQVFCI[Trp(1-Me)]QDW[Sar]EHRCTEGE[AEEA][AEEA]K([γGlu-Gly-γGlu-C18 diacid])-NH2
modifications: bridge 6-16 via methylene thioacetal (-S-CH2-S-)
notes: Synthetic compstatin analogue; also called Comp No 23
B9: Compound 29 (peptide)
peptide: H-ESGVFCI[Trp(1-Me)]QDW[Sar]EHRCTEGE[AEEA][AEEA]K([γGlu-Gly-γGlu-C18 diacid])-NH2
modifications: bridge 6-16 via methylene thioacetal (-S-CH2-S-)
notes: Synthetic compstatin analogue; also called Comp No 29
B10: Compound 1 (peptide)
peptide: SEFCIWQDWGEHRCTGAES
modifications: N-terminal acetyl; 1-Me-Trp at 6; Cys4 and Cys14 bridged by methylene thioacetal (-S-CH2-S-); C-terminal amide
notes: Synthetic compstatin analogue; also called Comp No 1
B11: Compound 19 (peptide)
peptide: EGSEFCIWQDWGEHRCTEGE
modifications: N-terminal [15-Carboxy-pentadecanoyl]; 1-Me-Trp at 8; Cys6 and Cys16 bridged by methylene thioacetal (-S-CH2-S-); Sar at 12; C-terminal amide
notes: Synthetic compstatin analogue; also called Comp No 19
B12: Compound 2 (peptide)
peptide: Ac-SEFCI[Trp(1-Me)]QDWGEHRC[Sar]EGE[AEEA][AEEA]K([γGlu-Gly-γGlu-C18 diacid])-NH2
modifications: bridge 4-14 via methylene thioacetal (-S-CH2-S-)
notes: Synthetic compstatin analogue; also called Comp No 2
B13: Compound 9 (peptide)
peptide: Ac-SEFCI[Trp(1-Me)]QDW[Sar]EHRCTEGE[AEEA][AEEA]K([γGlu-Gly-γGlu-C18 diacid])-NH2
modifications: bridge 4-14 via methylene thioacetal ‑S‑CH2‑S‑ (CH2I2, DIPEA)
notes: Synthetic compstatin analogue; also called Comp No 9

Biological target: T1, Human C3 (Complement tech cat #A113c) (human, UniProt P01024 23-1663)
Test: cell-based or functional assay
Conditions: not given

T1 sequence (P01024 23-1663 limits assumed): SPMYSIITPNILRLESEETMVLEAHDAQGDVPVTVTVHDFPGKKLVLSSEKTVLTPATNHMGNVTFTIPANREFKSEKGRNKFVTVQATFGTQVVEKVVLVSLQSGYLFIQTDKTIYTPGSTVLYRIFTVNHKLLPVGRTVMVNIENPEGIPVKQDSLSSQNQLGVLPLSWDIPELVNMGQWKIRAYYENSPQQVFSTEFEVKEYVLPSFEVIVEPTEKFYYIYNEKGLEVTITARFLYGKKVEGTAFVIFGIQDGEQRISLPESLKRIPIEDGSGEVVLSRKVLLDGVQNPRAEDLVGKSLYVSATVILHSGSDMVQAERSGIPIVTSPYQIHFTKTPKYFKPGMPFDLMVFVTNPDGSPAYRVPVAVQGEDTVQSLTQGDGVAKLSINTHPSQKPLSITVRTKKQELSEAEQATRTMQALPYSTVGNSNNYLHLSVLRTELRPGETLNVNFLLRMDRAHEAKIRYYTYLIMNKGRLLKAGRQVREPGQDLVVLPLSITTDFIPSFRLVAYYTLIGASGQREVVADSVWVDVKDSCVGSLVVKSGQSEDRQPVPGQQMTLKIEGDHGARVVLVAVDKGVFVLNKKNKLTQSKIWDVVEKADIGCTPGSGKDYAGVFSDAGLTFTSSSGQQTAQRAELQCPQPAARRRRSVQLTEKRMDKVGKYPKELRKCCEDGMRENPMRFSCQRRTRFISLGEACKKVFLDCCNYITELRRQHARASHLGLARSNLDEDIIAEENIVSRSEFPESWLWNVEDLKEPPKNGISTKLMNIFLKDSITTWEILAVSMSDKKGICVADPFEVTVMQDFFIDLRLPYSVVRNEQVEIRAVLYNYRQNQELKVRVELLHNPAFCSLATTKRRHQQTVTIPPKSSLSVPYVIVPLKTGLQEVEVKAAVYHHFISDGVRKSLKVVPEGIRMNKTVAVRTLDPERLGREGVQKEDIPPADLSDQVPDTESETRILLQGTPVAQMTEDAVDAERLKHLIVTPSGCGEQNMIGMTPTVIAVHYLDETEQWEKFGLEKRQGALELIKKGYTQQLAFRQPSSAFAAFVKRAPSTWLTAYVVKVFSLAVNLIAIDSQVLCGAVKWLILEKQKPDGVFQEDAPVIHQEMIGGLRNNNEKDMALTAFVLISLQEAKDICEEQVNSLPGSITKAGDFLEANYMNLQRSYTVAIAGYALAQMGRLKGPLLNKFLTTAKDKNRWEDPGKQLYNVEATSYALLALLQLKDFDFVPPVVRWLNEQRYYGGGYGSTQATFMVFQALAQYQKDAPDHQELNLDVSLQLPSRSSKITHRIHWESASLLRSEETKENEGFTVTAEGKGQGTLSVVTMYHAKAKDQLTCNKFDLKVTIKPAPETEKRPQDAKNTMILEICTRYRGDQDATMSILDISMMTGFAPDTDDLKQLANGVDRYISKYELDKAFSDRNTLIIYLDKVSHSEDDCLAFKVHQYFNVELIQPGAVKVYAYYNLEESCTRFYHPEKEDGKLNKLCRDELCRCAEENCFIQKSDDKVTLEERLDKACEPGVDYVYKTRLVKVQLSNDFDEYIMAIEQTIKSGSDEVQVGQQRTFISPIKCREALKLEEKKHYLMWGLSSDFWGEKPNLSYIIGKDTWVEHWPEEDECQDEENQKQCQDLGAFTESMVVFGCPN

| Molecule | IC50 [nM], in vitro inhibition of hemolysis (classical complement pathway; human serum, sensitized sheep RBC) [nM] |
| --- | --- |
| B1 | < 100 |
| B2 | < 100 |
| B3 | < 250 |
| B4 | < 100 |
| B5 | < 250 |
| B6 | < 500 |
| B7 | < 250 |
| B8 | < 100 |
| B9 | < 100 |
| B10 | < 100 |
| B11 | < 250 |
| B12 | < 500 |
| B13 | < 250 |

Tested on: classical complement pathway
Test: In vitro haemolysis assay (inhibition of classical complement pathway)
Format: cell-based
Conditions: human serum, sensitized sheep RBC, 30 minutes at 37° C., absorbance at 405 nm, n=>2; read-out: IC50, inhibition of hemolysis
Protocol: The in vitro effect of some of the compounds described herein was assessed by measuring their inhibitory effect of the classical complement pathway in a haemolysis assay.
Briefly, compounds described herein and reference compounds were dissolved in DMSO and diluted in Tris/Casein Assay Buffer (10 mM Tris, 145 mM NaCl, 0.5 mM MgCl2, 0.15 mM CaCl2, and 0.1% W/V casein, adjusted to pH 7.4) as 9-point serial dilutions in a 96-well plate. Sensitized sheep red blood cells (RBC) coated with rabbit anti-sheep erythrocyte antiserum (Complement Technology, Inc., TX, USA) were washed in Tris/asein Assay Buffer. 50 μL from each well of diluted compound was added to a 96-well plate containing 50 μL diluted human serum (Complement Technology, Inc., TX, USA) and incubated for 15 minutes at room temperature. The serum dilution factor was optimized for every serum batch to obtain 70-90% of maximal haemolysis using the protocol. Then 50 μL sensitized sheep RBCs were added to all wells ([…]).
After 30 minutes of incubation at 37° C. with gentle agitation, the reaction was stopped by addition of 50 μL Tris STOP Buffer per well (10 mM EDTA, 10 mM Tris, 145 mM NaCl adjusted to pH 7.4). The RBCs were then removed by centrifugation and the resulting supernatant measured for hemolysis by absorbance at 405 nm.
The response was normalized relative to a positive and negative control (vehicle) to calculate the IC50 (nM) from the concentration response curve using the 4-parameter logistic (4PL) nonlinear model for curve fitting (Table 2). All values are based on n=>2 independent determinations.

| Molecule | IC50 [nM] |
| --- | --- |
| Ac-YEQAF[C(1)]I[1-Me-Trp]QDW[Sar]EHR[C(1)]TEGE[Peg3]ES-K([17-Carboxy-heptadecanoyl][yGlu]G[yGlu])-NH2 [Compound 30] | < 100 |
| CC[C@H](C)[C@@H]1NC(=O)[C@@H](NC(=O)[C@H](Cc2ccccc2)NC(=O)[C@H](CCC(=O)O)NC(=O)[C@H](CO)NC(C)=O)CSCSC[C@@H](C(=O)N[C@H](C(=O)NCC(=O)N[C@@H](C)C(=O)N[C@@H](CCC(=O)O)C(=O)N[C@@H](CO)C(N)=O)[C@@H](C)O)NC(=O)[C@H](CCCNC(=N)N)NC(=O)[C@H](Cc2c[nH]cn2)NC(=O)[C@H](CCC(=O)O)NC(=O)CNC(=O)[C@H](Cc2c[nH]c3ccccc23)NC(=O)[C@H](CC(=O)O)NC(=O)[C@H](CCC(N)=O)NC(=O)[C@H](Cc2cn(C)c3ccccc23)NC1=O [Compound 1, Ac-SEF[C(1)]I[[1-Me-Trp]QDWGEHR[C(1)]TGAES-[NH2]] (Ac-SEFCI[Trp(1-Me)]QDWGEHRCTGAES-NH2; linker 4-14 via CH2) | < 100 |
| CC[C@H](C)[C@@H]1NC(=O)[C@@H](NC(=O)[C@H](Cc2ccccc2)NC(=O)[C@@H](NC(=O)[C@H](CCC(N)=O)NC(=O)[C@H](CO)NC(=O)[C@H](CCC(=O)O)NC(C)=O)C(C)C)CSCSC[C@@H](C(=O)N[C@H](C(=O)N[C@@H](CCC(=O)O)C(=O)NCC(=O)N[C@@H](CCC(=O)O)C(=O)NCCOCCOCC(=O)NCCOCCOCC(=O)N[C@@H](CCCCNC(=O)CC[C@H](NC(=O)CNC(=O)CC[C@H](NC(=O)CCCCCCCCCCCCCCCCC(=O)O)C(=O)O)C(=O)O)C(N)=O)[C@@H](C)O)NC(=O)[C@H](CCCNC(=N)N)NC(=O)[C@H](Cc2c[nH]cn2)NC(=O)[C@H](CCC(=O)O)NC(=O)CN(C)C(=O)[C@H](Cc2c[nH]c3ccccc23)NC(=O)[C@H](CC(=O)O)NC(=O)[C@H](CCC(N)=O)NC(=O)[C@H](Cc2cn(C)c3ccccc23)NC1=O [Compound 23, Ac-ESQVF[C(1)]I[1-Me-Trp]QDW[Sar]EHR[C(1)]TEGE[Peg3][Peg3]-K([17-Carboxy-heptadecanoyI][yGlu]G[yGlu])-NH2] (Ac-ESQVFCI[Trp(1-Me)]QDW[Sar]EHRCTEGE[AEEA][AEEA]K([γGlu-Gly-γGlu-C18 diacid])-NH2; linker 6-16 via CH2) | < 100 |
| Ac-GEF[C(1)]I[1-Me-Trp]QDWGEHR[C(1)][Sar]EAE[Peg3][Peg3]-K([17-Carboxy-heptadecanoyl][yGlu]G[yGlu])-NH2 [Compound 6] | < 500 |
| Ac-SEF[C(1)]I[1-Me-Trp]QDWGEHR[C(1)][Sar]EGA-K([17-Carboxy-heptadecanoyl]-[yGlu]G[Peg3][yGlu][Peg3]-NH2 [Compound 4] | < 500 |
| CC[C@H](C)[C@@H]1NC(=O)[C@@H](NC(=O)[C@H](Cc2ccccc2)NC(=O)[C@@H](NC(=O)[C@H](CCC(N)=O)NC(=O)[C@H](CCC(=O)O)NC(=O)[C@H](CO)NC(=O)[C@H](CCC(=O)O)NC(C)=O)C(C)C)CSCSC[C@@H](C(=O)N[C@H](C(=O)N[C@@H](CCC(=O)O)C(=O)NCC(=O)N[C@@H](CCC(=O)O)C(=O)NCCOCCOCC(=O)NCCOCCOCC(=O)N[C@@H](CCCCNC(=O)CC[C@H](NC(=O)CNC(=O)CC[C@H](NC(=O)CCCCCCCCCCCCCCCCC(=O)O)C(=O)O)C(=O)O)C(N)=O)[C@@H](C)O)NC(=O)[C@H](CCCNC(=N)N)NC(=O)[C@H](Cc2c[nH]cn2)NC(=O)[C@H](CCC(=O)O)NC(=O)CN(C)C(=O)[C@H](Cc2c[nH]c3ccccc23)NC(=O)[C@H](CC(=O)O)NC(=O)[C@H](CCC(N)=O)NC(=O)[C@H](Cc2cn(C)c3ccccc23)NC1=O [Compound 24, Ac-ESEQVF[C(1)]I[1-Me-Trp]QDW[Sar]EHR[C(1)]TEGE[Peg3][Peg3]-K([17-Carboxy-heptadecanoyl][yGlu]G[yGlu])-NH2] (Ac-ESEQVFCI[Trp(1-Me)]QDW[Sar]EHRCTEGE[AEEA][AEEA]K([γGlu-Gly-γGlu-C18 diacid])-NH2; linker 7-17 via CH2) | < 100 |

Biological target: T1, Human C3 (Complement tech cat #A113c)
Test: SPR (Biacore X100, 25 C), human C3 amine-coupled on CM5 chip, peptide as analyte, 1:1 Langmuir fit
Conditions: not given
Protocol: Surface plasmon resonance (SPR) was used to characterize peptides with respect to their binding affinity (Kd) for C3.
For interaction experiments, a multi-cycle experiment approach was used and performed using a BiacoreX100™ instrument (GE Healthcare) at 25° C. Peptides were injected in increasing concentration series (5 different concentrations and buffer reference) for 180 seconds at a flow rate of 30 μL/min in a buffer consisting of 50 mM Tris buffer at pH 7.4, with 150 mM NaCl and 0.05% Tween20. This was followed by a dissociation period for 10 min.
Sensorgrams were double-referenced (reference surface, blanks) prior to analysis of the kinetic profiles by globally fitting data to a 1:1 Langmuir binding model to obtain association and dissociation rates for calculation of the equilibrium dissociation constant Kd (Table 3). Each peptide was tested at in at least 2 independent experiments.

| Molecule | Kd [nM] |
| --- | --- |
| B4 | 12 |
| B5 | 16 |
| B6 | 21 |
| B8 | 14 |
| B10 | 25 |
| B12 | 54 |
